Laboratory results taken from PMC9106695, “The use of high-affinity polyhistidine binders as masking probes for the selection of an NDM-1 specific aptamer”.

Key:
[1] = test system: hexa-HIS peptide (synthetic); assay: MST; conditions: 20 mM Tris-HCl pH 7.4, 140 mM NaCl, 5 mM MgCl2, 1 mM CaCl2, 1 mM KCl; FLAA/MST with 0.1% BSA and 0.05% Tween 20 (FLAA at RT); SPR without BSA, 0.005% Tween 20 …
HIS-NDM-1 (New Delhi …) [2] = target: T1, HIS-NDM-1 (New Delhi metallo-beta-lactamase 1) (E. coli, UniProt C7C422 29-270); assay: SPR; aptamer immobilized; text gives upper limit 4.43E-09; 20 mM Tris-HCl pH 7.4, 140 mM NaCl, 5 mM MgCl2, 1 mM CaCl2, 1 mM KCl; FLAA/MST with 0.1% BSA and 0.05% Tween 20 (FLAA at RT); SPR without BSA, 0.005% Tween 20; conditions: protein: commercial; tags: N-terminal His6; label: 5'-BiotinTEG (SPR kinetics); 5'-Cy5 (MST); none (screens)
T1 sequence (C7C422 29-270): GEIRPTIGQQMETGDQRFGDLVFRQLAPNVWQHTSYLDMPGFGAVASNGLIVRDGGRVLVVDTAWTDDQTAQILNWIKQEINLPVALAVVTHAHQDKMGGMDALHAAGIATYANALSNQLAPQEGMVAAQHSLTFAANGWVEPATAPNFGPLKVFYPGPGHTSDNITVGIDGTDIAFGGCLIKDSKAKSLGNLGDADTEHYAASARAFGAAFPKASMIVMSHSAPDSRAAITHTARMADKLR

[3] = target: T2, mPD1-HIS (mouse Programmed cell Death protein 1) (mouse, UniProt Q02242 25-169); assay: SPR; aptamer immobilized; 20 mM Tris-HCl pH 7.4, 140 mM NaCl, 5 mM MgCl2, 1 mM CaCl2, 1 mM KCl; FLAA/MST with 0.1% BSA and 0.05% Tween 20 (FLAA at RT); SPR without BSA, 0.005% Tween 20; conditions: protein: commercial, tags: C-terminal HIS
T2 sequence (Q02242 25-169): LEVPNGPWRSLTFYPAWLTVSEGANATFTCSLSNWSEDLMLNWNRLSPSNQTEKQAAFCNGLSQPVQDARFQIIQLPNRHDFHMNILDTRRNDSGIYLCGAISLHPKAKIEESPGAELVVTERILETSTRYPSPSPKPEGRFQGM

[4] = target: CFHR1-HIS (Complement factor H-related protein 1) (UniProt Q03591 19-330); assay: as above; conditions: protein: commercial, tags: C-terminal HIS
CFHR1-HIS (Complement factor H-related protein 1), sequence (Q03591 19-330): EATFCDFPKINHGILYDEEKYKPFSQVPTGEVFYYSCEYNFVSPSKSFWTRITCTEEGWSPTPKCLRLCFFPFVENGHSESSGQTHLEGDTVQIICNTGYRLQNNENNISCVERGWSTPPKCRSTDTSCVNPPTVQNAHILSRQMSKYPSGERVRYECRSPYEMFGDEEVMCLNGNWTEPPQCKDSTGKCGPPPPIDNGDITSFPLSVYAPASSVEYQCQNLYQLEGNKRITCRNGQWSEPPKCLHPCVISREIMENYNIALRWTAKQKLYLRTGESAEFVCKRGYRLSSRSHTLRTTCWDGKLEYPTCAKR

HIS-NDM-1 (New Delhi …) [5] = target: T1, HIS-NDM-1 (New Delhi …); assay: MST; 20 mM Tris-HCl pH 7.4, 140 mM NaCl, 5 mM MgCl2, 1 mM CaCl2, 1 mM KCl; FLAA/MST with 0.1% BSA and 0.05% Tween 20 (FLAA at RT); SPR without BSA, 0.005% Tween 20; conditions: protein: commercial, tags: N-terminal His6
HIS-NDM-1 (New Delhi …) [6] = target: T1, HIS-NDM-1 (New Delhi …); assay: FLAA; signal exceeds initial library; 20 mM Tris-HCl pH 7.4, 140 mM NaCl, 5 mM MgCl2, 1 mM CaCl2, 1 mM KCl; FLAA/MST with 0.1% BSA and 0.05% Tween 20 (FLAA at RT); SPR without BSA, 0.005% Tween 20; conditions: protein: commercial; tags: N-terminal His6
HIS-NDM-1 (New Delhi …) [7] = target: T1, HIS-NDM-1 (New Delhi …); assay: FLAA; signal exceeds initial library; not seen in SPR; 20 mM Tris-HCl pH 7.4, 140 mM NaCl, 5 mM MgCl2, 1 mM CaCl2, 1 mM KCl; FLAA/MST with 0.1% BSA and 0.05% Tween 20 (FLAA at RT); SPR without BSA, 0.005% Tween 20; conditions: protein: commercial; tags: N-terminal His6
[8] = target: T2, mPD1-HIS (mouse Programmed cell Death …); assay: SPR; protein immobilized, 1 uM aptamer; 20 mM Tris-HCl pH 7.4, 140 mM NaCl, 5 mM MgCl2, 1 mM CaCl2, 1 mM KCl; FLAA/MST with 0.1% BSA and 0.05% Tween 20 (FLAA at RT); SPR without BSA, 0.005% Tween 20; conditions: protein: commercial; tags: C-terminal HIS
HIS-NDM-1 (New Delhi …) [9] = target: T1, HIS-NDM-1 (New Delhi …); assay: SPR; aptamer immobilized; 20 mM Tris-HCl pH 7.4, 140 mM NaCl, 5 mM MgCl2, 1 mM CaCl2, 1 mM KCl; FLAA/MST with 0.1% BSA and 0.05% Tween 20 (FLAA at RT); SPR without BSA, 0.005% Tween 20; conditions: protein: commercial, tags: N-terminal His6
[10] = target: OXA-23 beta-lactamase (A. baumannii) (Acinetobacter baumannii, UniProt Q9L4P2 18-273); assay: MST; 20 mM Tris pH 7.4, 140 mM NaCl, 5 mM MgCl2, 1 mM CaCl2, 1 mM KCl, 0.1% BSA, 0.05% Tween 20; conditions: tags: N-His6; label: 5'-Cy5
OXA-23 beta-lactamase (A. baumannii), sequence (Q9L4P2 18-273): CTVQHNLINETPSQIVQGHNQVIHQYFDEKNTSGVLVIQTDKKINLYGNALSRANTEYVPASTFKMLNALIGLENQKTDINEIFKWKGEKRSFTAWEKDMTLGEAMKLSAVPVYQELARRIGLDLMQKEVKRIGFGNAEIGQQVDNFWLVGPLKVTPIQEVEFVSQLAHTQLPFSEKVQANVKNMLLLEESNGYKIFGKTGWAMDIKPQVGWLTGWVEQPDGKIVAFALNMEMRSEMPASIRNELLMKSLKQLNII

[11] = label: 5'-BiotinTEG (SPR kinetics), 5'-Cy5 (MST), none (screens)
[12] = label: 5'-BiotinTEG (SPR), 5'-Cy5 (MST), none (FLAA)

With “GTATCTGGTGGTCTATGGCGTCATAGGTACCATGGGGGACTGCTCGGGATTGCGGATTCATGGCATAGACGACGAAGAAC [NDM1-H14-01]” as the molecule, how does the Kd [1] read?
The Kd was 28.1 nM.

B1: NDM1-H14-01 (ssDNA)
DNA: GTATCTGGTGGTCTATGGCGTCATAGGTACCATGGGGGACTGCTCGGGATTGCGGATTCATGGCATAGACGACGAAGAAC
What does the source list for B1?
Kd (HIS-NDM-1 (New Delhi …) [2]): 4.34 nM; Kd [3, 11]: 0.0986 nM; Kd [4, 11]: 0.0449 nM

B2: Con1 (ssDNA)
DNA: GGGAATTCGAGCTCGGTACCGGCTGCTTTGCTGCAGATTTGTGGGTGGGTGGGTGGTGATCTGCAGGCATGCAAGCTTGG
Does B2 bind (HIS-NDM-1 (New Delhi …) [5]; label: 5'-Cy5)?
Result: no binding

B3: NDM1-H14-02 (ssDNA)
DNA: GTATCTGGTGGTCTATGGCCAGTATGGCTGTTCAAGTCTTCAGAGGGTCTGCTCGGGATTGCGCATAGACGACGAAGAAC
Does B3 bind (HIS-NDM-1 (New Delhi …) [6])?
Result: binds

B4: NDM1-H14-25 (ssDNA)
DNA: GTATCTGGTGGTCTATGGCAAACGTTCTGAGTTAGGCTTATTTTTCTCTCTTCCCTTCGCCGCATAGACGACGAAGAAC
Does B4 bind (HIS-NDM-1 (New Delhi …) [7])?
Result: binds

Does B4 bind [8]?
Result: binds

B5: NDM1-H14-01-FR (ssDNA)
DNA: CGTCATAGGTACCATGGGGGACTGCTCGGGATTGCGGATTCATG
What does the source list for B5?
Kd (HIS-NDM-1 (New Delhi …) [9]; label: 5'-BiotinTEG): 5.91 nM; Kd ([3]; label: 5'-BiotinTEG): 0.125 nM; Kd ([4]; label: 5'-BiotinTEG): 0.0286 nM

B6: NDM1-H14.2_43 (ssDNA)
DNA: GTATCTGGTGGTCTATGGCCGCTATCCGCAATCTGTCTCTTTTCTTTATTCTTTTACTCACCGCATAGACGACGAAGAAC
Does B6 bind [10]?
Result: no binding

What about the Kd (HIS-NDM-1 (New Delhi …) [5]; [12]) of the same molecule?
Its Kd is 2820 nM.

What about the Kd (HIS-NDM-1 (New Delhi …) [9]; [12]) of the same molecule?
The Kd was 745 nM.
